Results reported in publication PMC3109874.

Target: dicamba monooxygenase (DMO) (Stenotrophomonas (formerly Pseudomonas) maltophilia, strain DI-6) (UniProt Q5S3I3)
Assay: crystal structure

Substance: dicamba monooxygenase (DMO) (from UniProt Q5S3I3 2-339) (enzyme)
- stoichiometry N: 3
